According to patent US20220073935A1:

Biological target: E2F1-SB, DP1 (E2F1 fragment with C-terminal Small BiT, co-expressed with Dp-1) (human) (UniProt Q01094)
Assay: NanoBiT split-luciferase complementation, cells stably expressing E2F1-SB and Dp-1; relative to WT LB-Rb

E2F1-SB, DP1 (E2F1 fragment with C-terminal Small BiT, co-expressed with Dp-1) (human), sequence (Q01094 whole entry, chain 1 of 2, the tested form may be a part): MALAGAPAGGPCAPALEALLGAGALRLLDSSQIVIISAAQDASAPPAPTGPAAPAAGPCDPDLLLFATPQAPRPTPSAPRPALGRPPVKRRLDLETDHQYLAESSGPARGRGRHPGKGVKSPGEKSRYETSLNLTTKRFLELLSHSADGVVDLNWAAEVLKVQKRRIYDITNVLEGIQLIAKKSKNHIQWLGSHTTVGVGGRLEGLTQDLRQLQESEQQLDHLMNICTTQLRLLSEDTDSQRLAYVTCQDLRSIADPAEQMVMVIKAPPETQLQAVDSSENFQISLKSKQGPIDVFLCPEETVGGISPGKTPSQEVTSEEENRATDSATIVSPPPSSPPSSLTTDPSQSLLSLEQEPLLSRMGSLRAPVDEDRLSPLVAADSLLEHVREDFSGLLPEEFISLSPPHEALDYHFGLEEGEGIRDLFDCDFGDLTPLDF
E2F1-SB, DP1 (E2F1 fragment with C-terminal Small BiT, co-expressed with Dp-1) (human), sequence (Q14186 whole entry, chain 2 of 2, further chain, the tested form may be a part): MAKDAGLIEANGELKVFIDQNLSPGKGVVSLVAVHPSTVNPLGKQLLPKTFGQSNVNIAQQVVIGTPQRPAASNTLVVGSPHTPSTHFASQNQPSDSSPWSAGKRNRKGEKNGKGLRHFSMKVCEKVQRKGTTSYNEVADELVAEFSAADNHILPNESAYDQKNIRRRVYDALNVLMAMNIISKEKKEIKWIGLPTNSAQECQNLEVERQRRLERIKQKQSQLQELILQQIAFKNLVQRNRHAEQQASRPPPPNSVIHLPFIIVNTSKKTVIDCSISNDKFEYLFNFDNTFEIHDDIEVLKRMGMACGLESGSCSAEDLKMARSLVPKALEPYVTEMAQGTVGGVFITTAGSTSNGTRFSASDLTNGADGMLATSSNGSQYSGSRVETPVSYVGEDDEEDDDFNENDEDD

B1: LB-Rb (379-928) R661W (protein, part only; not given: Large BiT luciferase tag, human, UniProt P06400 379-928, looked up, part only)
chain, part: MNTIQQLMMILNSASDQPSENLISYFNNCTVNPKESILKRVKDIGYIFKEKFAKAVGQGCVEIGSQRYKLGVRLYYRVMESMLKSEEERLSIQNFSKLLNDNIFHMSLLACALEVVMATYSRSTSQNLDSGTDLSFPWILNVLNLKAFDFYKVIESFIKAEGNLTREMIKHLERCEHRIMESLAWLSDSPLFDLIKQSKDREGPTDHLESACPLNLPLQNNHTAADMYLSPVRSPKKKGSTTRVNSTANAETQATSAFQTQKPLKSTSLSLFYKKVYRLAYLWLNTLCERLLSEHPELEHIIWTLFQHTLQNEYELMRDRHLDQIMMCSMYGICKVKNIDLKFKIIVTAYKDLPHAVQETFKRVLIKEEEYDSIIVFYNSVFMQRLKTNILQYASTRPPTLSPIPHIPRSPYKFPSSPLRIPGGNIYISPLKSPYKISEGLPTPTKMTPRSRILVSIGESFGTSEKFQKINQMVCNSDRVLKRSAEGSNPPKPLKKLRFDIEGSDEADGSKHLPGESKFQQKLAEMTSTRTRMQKQKMNDSMDTSNKEEK
% (/wt) luciferase activity: 5.2 % (/wt)
